For test [1], the target named is T1, Anti-CD28 Fab (SEQ ID NOs: 696, 697).
T1 construct: Biotinylated and captured on neutravidin coated plates in the phage ELISA
The test is described as follows: clonal phage ELISA; biotinylated anti-CD28 Fab on neutravidin plate, bound phage detected with anti-M13 HRP.
T1 sequence (VH, as listed by the source, chain 1 of 2): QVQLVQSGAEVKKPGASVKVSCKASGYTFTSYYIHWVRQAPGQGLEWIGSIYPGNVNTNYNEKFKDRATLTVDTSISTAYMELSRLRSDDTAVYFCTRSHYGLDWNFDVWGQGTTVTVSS
T1 sequence (VL, as listed by the source, chain 2 of 2): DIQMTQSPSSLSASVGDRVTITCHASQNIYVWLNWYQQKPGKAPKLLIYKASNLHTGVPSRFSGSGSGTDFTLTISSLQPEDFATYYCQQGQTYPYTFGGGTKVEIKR
Method: (§1) After panning, phage infected bacteria were plated out and colonies picked into 96 well blocks. Clonal phage was then amplified and separated from bacterial cells via centrifugation.
(§2) Clonal phage were harvested as crude supematants and screened via standard ELISAs. […] Prior to the addition of clonal phage, wells were incubated with blocking buffer and CD28 antigen or blocking buffer alone. Without washing or aspirating, clonal phage supematants were then added to the wells and incubated for a short time. Wells were then washed followed by detection of bound phage using a horse radish conjugated anti-M13 antibody. Clonal phage of interest were then sent for sequence analysis.

Test [2] has the same target. The test is described as follows: clonal phage ELISA on captured anti-CD28 Fab; wells pre-incubated with CD28 antigen as competitor. For orientation: An ELISA detects its analyte on a solid surface through an enzyme-linked reagent.
Target sequence in this assay (VH, as listed by the source, chain 1 of 2): as the sequence (VH, as listed by the source, chain 1 of 2) above
Target sequence in this assay (VL, as listed by the source, chain 2 of 2): as the sequence (VL, as listed by the source, chain 2 of 2) above
Method: as §1, §2
The target in test [3] is T2, Anti-CD28 Fab (SEQ ID NOs: 696, 697).
T2 construct: In the phage ELISA the Fab was biotinylated and captured on neutravidin coated plates
In words: phage ELISA; biotinylated anti-CD28 Fab on neutravidin plate, clonal phage supernatant, anti-M13 HRP.
T2 sequence (VH, as listed by the source, chain 1 of 2): as the sequence (VH, as listed by the source, chain 1 of 2) above
T2 sequence (VL, as listed by the source, chain 2 of 2): as the sequence (VL, as listed by the source, chain 2 of 2) above
Method: as §1, §2

For test [4] the target is unchanged. The test is described as follows: phage ELISA; captured anti-CD28 Fab pre-incubated with CD28 antigen as competitor, anti-M13 HRP.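 Note: crude clonal phage supernatants added without washing after CD28 pre-incubation, bound phage detected with HRP anti-M13 antibody, reference wells got blocking buffer lacking CD28.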
Target sequence in this assay (VH, as listed by the source, chain 1 of 2): as the sequence (VH, as listed by the source, chain 1 of 2) above
Target sequence in this assay (VL, as listed by the source, chain 2 of 2): as the sequence (VL, as listed by the source, chain 2 of 2) above
Method: as §1, §2
Test [5] deals with Anti-CD28 Fab (SEQ ID NOs: 696, 697). In words: phage binding ELISA on captured anti-CD28 Fab; competitor CD28 antigen pre-incubated in the wells.
Target sequence in this assay (VH, as listed by the source, chain 1 of 2): as the sequence (VH, as listed by the source, chain 1 of 2) above
Target sequence in this assay (VL, as listed by the source, chain 2 of 2): as the sequence (VL, as listed by the source, chain 2 of 2) above
Method: as §1, §2
Test [6] has the same target. In words: phage binding ELISA; biotinylated anti-CD28 Fab on neutravidin plate, clonal phage supernatant, anti-M13 HRP.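 Note: crude clonal phage supernatants screened after wells were preincubated either with CD28 antigen in blocking buffer or with blocking buffer only, phage added without washing.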
Target sequence in this assay (VH, as listed by the source, chain 1 of 2): as the sequence (VH, as listed by the source, chain 1 of 2) above
Target sequence in this assay (VL, as listed by the source, chain 2 of 2): as the sequence (VL, as listed by the source, chain 2 of 2) above
Method: as §1, §2

Where no end group is shown, it is not given here.

B1: Phage-1191 (peptide)
peptide: YCDGHANAYIWKCL
For the molecule B1, the “Phage binding ELISA, Anti-CD28 Fab signal” value in test [1] was 1.07. For the same molecule, the “Phage binding ELISA, Anti-CD28 Fab signal in the presence of CD28” value in test [2] came to 0.09.

B2: Phage-1198 (peptide)
peptide: YCEGHDVQYMQKCL
modifications: cysteine pairing not given here; also: displayed on phage by fusion to pIII, linker and pIII sequence not given here
For B2, the “Anti-CD28 Fab signal (phage binding ELISA)” value in test [3] was determined as 1.06. Further, the “Anti-CD28 Fab signal in the presence of CD28 (phage binding ELISA)” value in test [4] was 0.08.

B3: Phage-1193 (peptide)
peptide: YCEGHAQEYMAKCL
For the molecule B3, in test [1], the “Phage binding ELISA, Anti-CD28 Fab signal” value was determined as 1.06. The “Phage binding ELISA, Anti-CD28 Fab signal in the presence of CD28” value in test [2] was 0.08.

B4: Phage-1195 (peptide)
peptide: YCEGHIPAYMAKCL
modifications: cysteine pairing not given here; also: displayed on phage by fusion to pIII, linker and pIII sequence not given here
As to B4, the “Anti-CD28 Fab signal (phage binding ELISA)” value in test [3] was found to be 1.06. Besides, in test [4], the “Anti-CD28 Fab signal in the presence of CD28 (phage binding ELISA)” value stood at 0.08.

B5: Phage-1190 (peptide)
peptide: YCEGHSEMYMSKCL
Turning to B5, the “Phage binding ELISA, Anti-CD28 Fab signal” value in test [1] amounted to 1.07. In addition, the “Phage binding ELISA, Anti-CD28 Fab signal in the presence of CD28” value in test [2] is 0.09.

B6: Phage-1205 (peptide)
peptide: YCDGHDARYMTKCL
modifications: cysteine pairing not given here; also: displayed on phage by fusion to pIII, linker and pIII sequence not given here
B6: the “Anti-CD28 Fab signal (phage binding ELISA)” value in test [3] was determined as 1.04. Also, the “Anti-CD28 Fab signal in the presence of CD28 (phage binding ELISA)” value in test [4] amounted to 0.09.

B7: Phage-1188 (peptide)
peptide: YCVGHLPEYMLECM
In the case of B7, the “Phage binding ELISA, Anti-CD28 Fab signal” value in test [1] came to 1.08. Moreover, the “Phage binding ELISA, Anti-CD28 Fab signal in the presence of CD28” value in test [2] is 0.07.

B8: Phage-1206 (peptide)
peptide: YCEGHSVEYILKCL
modifications: cysteine pairing not given here; also: displayed on phage by fusion to pIII, linker and pIII sequence not given here
For B8, in test [3], the “Anti-CD28 Fab signal (phage binding ELISA)” value stood at 1.04. Also, in test [4], the “Anti-CD28 Fab signal in the presence of CD28 (phage binding ELISA)” value amounted to 0.06.

B9: Phage-1207 (peptide)
peptide: YCEGHSSAYMRKCL
modifications: cysteine pairing not given here; also: displayed on phage by fusion to pIII, linker and pIII sequence not given here
In the case of B9, the “Anti-CD28 Fab signal (phage binding ELISA)” value in test [3] came out at 1.04. In addition, in test [4], the “Anti-CD28 Fab signal in the presence of CD28 (phage binding ELISA)” value was 0.06.

B10: Phage-1184 (peptide)
peptide: YCEGHMGEYMLKCL
Consider B10, for which, in test [1], the “Phage binding ELISA, Anti-CD28 Fab signal” value came to 1.1. The “Phage binding ELISA, Anti-CD28 Fab signal in the presence of CD28” value in test [2] is 0.06.

B11: Phage-1181 (peptide)
peptide: YCEGHSSLYLEKCL
modifications: cysteine pairing not given here; also: displayed on phage by fusion to pIII, linker and pIII sequence not given here
notes: Clonal phage of the Peptide-87 library; not shown: fused to the pIII filament of the bacteriophage
On to B11, for which, in test [5], the “Anti-CD28 Fab signal in the presence of CD28” value was 0.08. Further, the “Anti-CD28 Fab (SEQ ID NOs: 696, 697) signal” value in test [6] amounted to 1.11.

B12: Phage-1194 (peptide)
peptide: YCDGHAKVYIWKCL
B12: the “Phage binding ELISA, Anti-CD28 Fab signal” value in test [1] is 1.06. Moreover, the “Phage binding ELISA, Anti-CD28 Fab signal in the presence of CD28” value in test [2] turned out to be 0.08.

B13: Phage-1196 (peptide)
peptide: YCDGHAPIYMQKCL
modifications: cysteine pairing not given here; also: displayed on phage by fusion to pIII, linker and pIII sequence not given here
As for B13, the “Anti-CD28 Fab signal (phage binding ELISA)” value in test [3] is 1.06. Also, in test [4], the “Anti-CD28 Fab signal in the presence of CD28 (phage binding ELISA)” value came out at 0.06.

B14: Phage-1189 (peptide)
peptide: YCDGHSFHYMAKCL
As to B14, the “Phage binding ELISA, Anti-CD28 Fab signal” value in test [1] is 1.08. Also, the “Phage binding ELISA, Anti-CD28 Fab signal in the presence of CD28” value in test [2] was 0.06.

B15: Phage-1183 (peptide)
peptide: YCEGHLWEYLAKCL
As to B15, the “Phage binding ELISA, Anti-CD28 Fab signal” value in test [1] was 1.1. Further, in test [2], the “Phage binding ELISA, Anti-CD28 Fab signal in the presence of CD28” value amounted to 0.05.

B16: Phage-1186 (peptide)
peptide: YCAGHAEEYMLKCL
For the molecule B16, in test [1], the “Phage binding ELISA, Anti-CD28 Fab signal” value stood at 1.09. For the same molecule, in test [2], the “Phage binding ELISA, Anti-CD28 Fab signal in the presence of CD28” value turned out to be 0.07.

B17: Phage-1201 (peptide)
peptide: YCDGHSSAYIDKCL
modifications: cysteine pairing not given here; also: displayed on phage by fusion to pIII, linker and pIII sequence not given here
Take B17: the “Anti-CD28 Fab signal (phage binding ELISA)” value in test [3] was 1.05. In addition, the “Anti-CD28 Fab signal in the presence of CD28 (phage binding ELISA)” value in test [4] came to 0.06.

B18: Phage-1200 (peptide)
peptide: YCDGHLPRYMEKCM
modifications: cysteine pairing not given here; also: displayed on phage by fusion to pIII, linker and pIII sequence not given here
For B18, the “Anti-CD28 Fab signal (phage binding ELISA)” value in test [3] was 1.05. In test [4], the “Anti-CD28 Fab signal in the presence of CD28 (phage binding ELISA)” value is 0.06.

B19: Phage-1179 (peptide)
peptide: YCAGHLPQYMHKCL
modifications: cysteine pairing not given here; also: displayed on phage by fusion to pIII, linker and pIII sequence not given here
notes: as for B11
With B19, the “Anti-CD28 Fab signal in the presence of CD28” value in test [5] was determined as 0.08. Moreover, the “Anti-CD28 Fab (SEQ ID NOs: 696, 697) signal” value in test [6] is 1.11.

B20: Phage-1203 (peptide)
peptide: YCDGHAPEFIRKCL
modifications: cysteine pairing not given here; also: displayed on phage by fusion to pIII, linker and pIII sequence not given here
B20: the “Anti-CD28 Fab signal (phage binding ELISA)” value in test [3] worked out at 1.05. The “Anti-CD28 Fab signal in the presence of CD28 (phage binding ELISA)” value in test [4] stood at 0.07.

B21: Phage-1187 (peptide)
peptide: YCEGHSAEYIGKCL
As to B21, in test [1], the “Phage binding ELISA, Anti-CD28 Fab signal” value is 1.08. For the same molecule, the “Phage binding ELISA, Anti-CD28 Fab signal in the presence of CD28” value in test [2] is 0.07.

B22: Phage-1197 (peptide)
peptide: YCEGHLWEYMKKCL
modifications: cysteine pairing not given here; also: displayed on phage by fusion to pIII, linker and pIII sequence not given here
For the molecule B22, the “Anti-CD28 Fab signal (phage binding ELISA)” value in test [3] is 1.06. Besides, the “Anti-CD28 Fab signal in the presence of CD28 (phage binding ELISA)” value in test [4] was determined as 0.07.

B23: Phage-1180 (peptide)
peptide: YCDGHIWPWIEKCL
modifications: cysteine pairing not given here; also: displayed on phage by fusion to pIII, linker and pIII sequence not given here
notes: as for B11
B23: the “Anti-CD28 Fab signal in the presence of CD28” value in test [5] turned out to be 0.11. In addition, the “Anti-CD28 Fab (SEQ ID NOs: 696, 697) signal” value in test [6] stood at 1.11.

B24: Phage-1185 (peptide)
peptide: YCDGHTKEYMWKCL
B24: the “Phage binding ELISA, Anti-CD28 Fab signal” value in test [1] came to 1.1. Further, the “Phage binding ELISA, Anti-CD28 Fab signal in the presence of CD28” value in test [2] stood at 0.06.

B25: Phage-1202 (peptide)
peptide: YCEGHLPSYLAKCL
modifications: cysteine pairing not given here; also: displayed on phage by fusion to pIII, linker and pIII sequence not given here
In the case of B25, the “Anti-CD28 Fab signal (phage binding ELISA)” value in test [3] is 1.05. Besides, in test [4], the “Anti-CD28 Fab signal in the presence of CD28 (phage binding ELISA)” value was determined as 0.06.

B26: Phage-1192 (peptide)
peptide: YCEGHIPMYMLKCM
B26: the “Phage binding ELISA, Anti-CD28 Fab signal” value in test [1] worked out at 1.06. Also, the “Phage binding ELISA, Anti-CD28 Fab signal in the presence of CD28” value in test [2] came out at 0.09.

B27: Phage-1199 (peptide)
peptide: YCEGHSSEYLGKCL
modifications: cysteine pairing not given here; also: displayed on phage by fusion to pIII, linker and pIII sequence not given here
With B27, the “Anti-CD28 Fab signal (phage binding ELISA)” value in test [3] was 1.05. The “Anti-CD28 Fab signal in the presence of CD28 (phage binding ELISA)” value in test [4] was determined as 0.09.

B28: Phage-1182 (peptide)
peptide: YCDGHAMEYMEKCL
With B28, the “Phage binding ELISA, Anti-CD28 Fab signal” value in test [1] stood at 1.11. Further, in test [2], the “Phage binding ELISA, Anti-CD28 Fab signal in the presence of CD28” value was 0.08.

B29: Phage-1204 (peptide)
peptide: YCEGHAPQYMSKCL
modifications: cysteine pairing not given here; also: displayed on phage by fusion to pIII, linker and pIII sequence not given here
Consider B29, for which, in test [3], the “Anti-CD28 Fab signal (phage binding ELISA)” value was determined as 1.04. Also, in test [4], the “Anti-CD28 Fab signal in the presence of CD28 (phage binding ELISA)” value worked out at 0.08.

The values are drawn from patent US20260242478A1 (published 2026).
